The values that follow come from patent US20090068110A1, “ANTIBODIES TO INSULIN-LIKE GROWTH FACTOR RECEPTOR” (Genentech, Inc., priority 2006, published 2009).

Common to all, as to assay type: cell-based, human
For experiment [1], the system named is SW480. Briefly: cell viability assay, SW480. The arrangement: key: +: growth inhibition; −: no or weak effect. To be noted: SW480, Colorectal Adenocarcinoma. How it is done:
(§1) The different cell lines were cultured in their respective culture media at 37° C. in a humidified atmosphere of 5% CO2. Subsequently, cells were detached from tissue-culture flasks using the cell-dissociation solution, TRIPLE SELECT™ solution (InVitrogen, Carlsbad, Calif., USA), and centrifuged at 1000 rpm for five minutes. Detached cells were washed once with PBS, counted, and seeded in 96-well plates (Corning, N.Y., USA) at 2000 cells per well in 100 μL of culture media. After an overnight incubation at 37° C. in a humidified atmosphere of 5% CO2, the cell-culture medium was replaced with 50 μL of starvation medium consisting of serum-free RPMI 1640™ medium without phenol red. The cells were then starved for five hours in the incubator before addition of 25 μL of each anti-IGF-1R monoclonal antibody at various dilutions in serum-free RPMI 1640™ phenol red-free media. Later, 25 μL of phenol red-free RPMI 1640™ media supplemented with 4% of fetal bovine serum (FBS) (Sigma) with or without 4 ng/ml of human recombinant IGF-I were added on top of the 50 μL of antibody. The cells were then placed at 37° C. with 5% CO2 for 5 to 6 days. At the end of the assay, cell viability was measured using the […]-GLO® kit according to the manufacturer's instructions (Promega, Madison, Wis., USA).

The test system of experiment [2] is DU145. Briefly: cell viability assay, DU145. More on the design: key: +: growth inhibition; −: no or weak effect. To be noted: DU145, Prostate Adenocarcinoma. How it is done:
as §1

Experiment [3] deals with IGF-1R signaling (phospho-IGF-1R, AKT, ERK1/2). The experiment in a line: Western blotting of IGF-1R signaling in MCF7 cells. To be noted: for inhibition of IGF-I-mediated AKT activation: serum-starved MCF7, IGF-I 50 ng/ml; for inhibition of IGF-II-mediated IGF-1R phosphorylation and downstream AKT and MAPK1/2 activation: serum-starved MCF7, IGF-II 100 ng/ml. How it is done:
Also examined was the effect of these antibodies on ligand-dependent IGF-1R signaling by directly analyzing IGF-1R phosphorylation as well as major downstream pathways, such as AKT and MAPK activation. In this assay, MCF7 cells were grown in 6-well plates and serum was withdrawn for 16 hours. […] The cells were directly lysed in SDS sample buffer, and the lysate was analyzed by Western blotting using antibodies against IGF-1R, phospho-IGF-1R, AKT, phospho-AKT, ERK1/2, phospho-ERK1/2 (also called MAPK1/2 and phospho-MAPK1/2) (all from Cell Signaling Technology, Inc.; Beverly, Mass., USA).
For the IGF-1R signaling pathway analysis, MCF7 cells were grown in six-well plates for 24 hours and then serum starved (serum-free and phenol-free RPMI medium supplemented with 1 mg/mL BSA) overnight. The cells were first incubated with h10H5 for 20 minutes, then stimulated with 50 ng/mL IGF-1 or 100 ng/mL IGF-11 for ten minutes. Cells were directly lysed in SDS sample buffer to preserve protein phosphorylation. After brief sonication, the lysates were separated by SDS-PAGE and transferred to nitrocellulose membranes (Invitrogen; Carlsbad, Calif.), which were probed with anti-phospho-IGF-1R, AKT, and ERK1/2 antibodies. The same blots were then stripped using Stripping Buffer™ (Pierce Biotechnology; Rockford, Ill.) and re-probed with antibodies against total IGF-1R β, AKT, and ERK1/2.
On the technique in general: In western blotting, separated proteins are transferred to a membrane and probed.

B1: 9F2: mouse monoclonal anti-IGF-1R antibody from hybridoma 9F2.6.2, ATCC PTA-7018 (antibody, V domains shown)
VH: QIQLVQSGPELKKPGETVKISCKASGYTLANYGMNWVKQAPGKGFKWMGWINTNTGKPTYSDEFKGRFVFSLETSASTAYLLINNLSNEDTATYFCARSIYYYGSRYFNVWGAGTT
VL: DIQMTQSTSSLSASLGDRVTISCRASQDINNYLTWYQQKPDGTVKLLIYYTSRLHSGVPSRFSGSGSGTDYSLTITNLEQEDFATYFCQQGNTLPWTFGEGTKVEIKR
As for B1, the “Effect of IR3, 6D2, 9F2, and 10H5” value in experiment [1] is “+”. The “Effect of IR3, 6D2, 9F2, and 10H5” value in experiment [2] is listed as “−”. Also, in experiment [3], the “inhibition of IGF-I-mediated AKT activation” value is “potently prevented AKT activation”; the “inhibition of IGF-II-mediated IGF-1R phosphorylation and downstream AKT and MAPK1/2 activation” value is listed as “remained as strong inhibitors”.

B2: 10H5: mouse monoclonal anti-IGF-1R antibody from hybridoma 10H5.3.4, ATCC PTA-7007 (antibody, V domains shown)
VH: QVQLQQPGAELVKPGASVTLSCKASGYTFTRFWIHWVKQRPGQGLEWIGEINPSNGRTNYNENFKNKATLTVDTSSSTAYMQLSSLTSEVSVVYYCARGGRLDQWGQGTT
VL: DIVMTQSQKFMSTSLGDRVSVTCKASQNVGSNVAWYQQKPGQSPEALIYSASYRYSGVPDRFTGSGSGTDFTLTISNVQSEDLAEYFCHQYNNYPYTFGGGTKVEIKR
Regarding B2, the “Effect of IR3, 6D2, 9F2, and 10H5” value in experiment [1] was “+”. Also, in experiment [2], the “Effect of IR3, 6D2, 9F2, and 10H5” value is reported as “−”. For the same molecule, in experiment [3], the “inhibition of IGF-I-mediated AKT activation” value is “potently prevented AKT activation”; the “inhibition of IGF-II-mediated IGF-1R phosphorylation and downstream AKT and MAPK1/2 activation” value is on record as “remained as strong inhibitors”.
